# Results taken from US20230039401A1, “COMPOSITIONS AND METHODS FOR TREATING NRP2-ASSOCIATED DISEASES” (aTyr Pharma, Inc., priority 2018, published 2023).
# Entries after “also recorded” stand apart in the source; their conditions may differ.
# B1: VEGF-A121: commercial protein (Peprotech #100-20A) (protein)
# chain: APMAEGGGQNHHEVVKFMDVYQRSYCHPIETLVDIFQEYPDEIEYIFKPSCVPLMRCGGCCNDEGLECVPTEESNITMQIMRIKPHQGQHIGEMSFLQHNKCECRPKKDRARQEKCDKPRR
# B2: VEGF-A145: commercial protein (R&D Systems #7626-VE-CF) (protein)
# chain: APMAEGGGQNHHEVVKFMDVYQRSYCHPIETLVDIFQEYPDEIEYIFKPSCVPLMRCGGCCNDEGLECVPTEESNITMQIMRIKPHQGQHIGEMSFLQHNKCECRPKKDRARQEKKSVRGKGKGQKRKRKKSRYKSWSVCDKPRR
# B3: mouse SEMA3F: commercial protein (R&D Systems #3237-S3) (protein)
# chain: ATPIQDQLPATPRVRLSFKELKATGTAHFFNFLLNTTDYRILLKDEDHDRMYVGSKDYVLSLDLHDINREPLIIHWAASPQRIEECILSGKDGNGECGNFVRLIQPWNRTHLYVCGTGAYNPMCTYVNRGRRAQALPWTQMQVVRGRGSRATDGADRPTPTAPRQDYIFYLEPEKLESGKGKCPYDPKLDTASALINEELYAGVYIDFMGTDAAIFRTLGKQTAMRTDQYNSRWLNDPSFIHAELIPDSAERNDDKLYFFFRERSAEAPQNPAVYARIGRICLNDDGGHCCLVNKWSTFLKARLVCSVPGEDGIETHFDELQDVFVQQTQDVRNPVIYAVFTSSGSVFRGSAVCVYSMADIRMVFNGPFAHKEGPNYQWMPFSGKMPYPRPGTCPGGTFTPSMKSTKDYPDEVINFMRTHPLMYQAVYPLQRRPLVVRTGAPYRLTTVAVDQVDAADGRYEVLFLGTDRGTVQKVIVLPKDDQEVEELMLEEVEVFKEPAPVKTMTISSKRQQLYVASAVGVTHLSLHRCQAYGAACADCCLARDPYCAWDGQACSRYTASSKRRSRRQDVRHGNPIRQCRGFNSNANKNAVESVQYGVAGSAAFLECQPRSPQATVKWLFQRDPSDRRREIRAEDRFLRTEQGLLLRALQLGDRGLYSCTATENNFKHIVTRVQLHVLGRDAVHAALFPPLAVSVPPPPGTGPPTPPYQELAQLLAQPEVGLIHQYCQGYWRHVPPRPREAPGALRPPELQDQKKPRNRRHHPPDT
# modifications: left off: a dimerising Fc or GST
# B4: SEMA3C: commercial protein (R&D Systems #5570-S3) (protein)
# chain: GSSQPQARVYLTFDELRETKTSEYFSLSHHPLDYRILLMDEDQDRIYVGSKDHILSLNINNISQEALSVFWPASTIKVEECKMAGKDPTHGCGNFVRVIQTFNRTHLYVCGSGAFSPVCTYLNRGRRSEDQVFMIDSKCESGKGRCSFNPNVNTVSVMINEELFSGMYIDFMGTDAAIFRSLTKRNAVRTDQHNSKWLSEPMFVDAHVIPDGTDPNDAKVYFFFKEKLTDNNRSTKQIHSMIARICPNDTGGLRSLVNKWTTFLKARLVCSVTDEDGPETHFDELEDVFLLETDNPRTTLVYGIFTTSSSVFKGSAVCVYHLSDIQTVFNGPFAHKEGPNHQLISYQGRIPYPRPGTCPGGAFTPNMRTTKEFPDDVVTFIRNHPLMYNSIYPIHKRPLIVRIGTDYKYTKIAVDRVNAADGRYHVLFLGTDRGTVQKVVVLPTNNSVSGELILEELEVFKNHAPITTMKISSKKQQLYVSSNEGVSQVSLHRCHIYGTACADCCLARDPYCAWDGHSCSRFYPTGKRRSRRQDVRHGNPLTQCRGFNLKAYRNAAEIVQYGVKNNTTFLECAPKSPQASIKWLLQKDKDRRKEVKLNERIIATSQGLLIRSVQGSDQGLYHCIATENSFKQTIAKINFKVLDSEMVAVVTDKWSPWTWASSVRALPFHPKDIMGAFSHSEMQMINQYCKDTRQQHQQGDESQKMRGDYGKLKALINS
# modifications: left off: a dimerising Fc or GST
# B5: VEGF-C: commercial NRP2 ligand protein (R&D Systems) (protein)
# chain: TEETIKFAAAHYNTEILKSIDNEWRKTQCMPREVCIDVGKEFGVATNTFFKPPCVSVYRCGGCCNSEGLQCMNTSTSYLSKTLFEITVPLSQGPKPVTISFANHTSCRCMSKLDVYRQVHSIIRR
# B6: PlGf-2/Heparin (protein)
# chain: LPAVPPQQWALSAGNGSSEVEVVPFQEVWGRSYCRALERLVDVVSEYPSEVEHMFSPSCVSLLRCTGCCGDENLHCVPVETANVTMQLLKIRSGDRPSYVELTFSQHVRCECRPLREKMKPERRRPKGRGKRRREKQRPTDCHLCGDAVPRR
# Target: T1, NRP2 (Homo sapiens, UniProt O60462)
# T1 construct: Fc (C); purchased R&D Systems 2215-N2
# Test: SPR binding of known ligands to NRP2
# Conditions: applicant's system
# Protocol: (§1) Protein-Protein Interaction studies. […] SPR experiments were conducted on a Bio-Rad ProteOn XPR36 Protein Interaction Array instrument. Proteins were immobilized on different channels of ProteOn GLC sensor chips through amine coupling. Analyte proteins were flowed over the immobilized proteins. The sensor chip surface was regenerated between each analyte run to remove interacting proteins. Data was double referenced against an interspot (untreated chip surface) and a blank surface (activated and deactivated for amine coupling).
# (§2) A subset of the known ligands of NRP2 appears to compete binding of Fc-HRS(2-60) to NRP2.
row,Molecule,binding of ligand to NRP2
1,B1,does not bind
2,B2,does not bind NRP2 in our system
3,B3,do bind
4,B4,do bind

# Same assay, conditions: known NRP2 ligands
row,Molecule,Binding to NRP2 observed by SPR
1,B1,No
2,B2,No
3,B3,Yes
4,B4,Yes
5,B5,Yes

# Target: T2, NRP2:Fc-HRS(2-60) interaction (Homo sapiens, UniProt O60462)
# T2 construct: Fc (C); purchased R&D Systems 2215-N2
# Test: SPR competition of known NRP2 ligands with the NRP2:Fc-HRS(2-60) interaction
# Type: binding
# Conditions: NRP2 in the presence of the ligand over immobilized Fc-HRS(2-60)
# Protocol: as §1
# Studies were performed to confirm the binding specificity of Neuropilin 2 (NRP2) to Fc-HRS(2-60) using orthologous methods to those used in the large scale Retrogenix screening (Example 1). In a series of experiments, Fc-HRS(2-60) and related proteins were immobilized on SPR chips, and NRP2 and related proteins were flowed as analytes. Upon confirmation of the NRP2:Fc-HRS(2-60) interaction, the dependence on divalent cations was tested as NRP2 is known to have Ca^2+ binding sites. The effects of previously characterized NRP2 ligands on the NRP2: Fc-HRS(2-60) interaction was also tested to determine if these known ligands have competitive effects on the Fc-HRS(2-60) interaction.
# as §2
row,Molecule,effect of ligand on binding of NRP2 to Fc-HRS(2-60) (SPR)
1,B1,unaffected
2,B2,unaffected
3,B3,do not affect
4,B4,do not affect
5,B5,reduced or ablated

# Same assay, conditions: SPR, NRP2 binding to immobilized Fc-HRS(2-60) in presence of ligand
row,Molecule,Competes with Fc-HRS(2-60) for NRP2 binding
1,B1,No
2,B2,No
3,B3,No
4,B4,No
5,B6,Yes
6,B5,Yes

# Target: T3, cell-expressed NRP2 (NRP2a-GFP fusion protein on HEK293T cells) (Homo sapiens, UniProt O60462)
# T3 construct: host or cells: HEK293T
# Test: Immunofluorescence binding of Fc-HRS (2-60) to HEK293T cells overexpressing NRP2v2-GFP
# Conditions: 175 nM Fc-HRS (2-60)/anti-Fc-PE; pre-incubation with the test agent
# Protocol: Reagents: • PE anti-human IgG Fc Antibody, clone HP6017, Biolegend cat 409304 • Mouse Anti-HRS monoclonal antibody (1-96) Clone 1C8, Abnova cat H00003035-M01 • Mouse IgG2a, Isotype control antibody (MOPC-173), Biolegend cat 400223 • Recombinant Human VEGF-C Protein, R&D Systems, cat 2179-VC-025/CF • Formaldehyde, 16%, methanol free, Ultra Pure, Polysciences, cat 18814-10 • Hoechst 33342, Trihydrochloride, Trihydrate, ThermoFisher Scientific, cat H1399 • Fc-HRS (2-60) was prepared as described in PCT application PCT/US2014/029699 • Gibco DMEM, High Glucose, ThermoFisher Scientific, cat 11965092 • PolyJet™ In Vitro DNA Transfection Reagent, SignaGen, cat SL100688 • Neuropilin 2 (NRP2) (NM_003872) Human ORF Clone, Origene, cat RG220706 • Collagen Coating Solution, Cell Applications Cat 125-100 • 1×PBS containing 1% BSA, 0.9 mM CaCl2 and 20 mM glucose • Binding buffer containing 1% normal mouse IgG (sigma cat 18765) and 2.5% (Human Fc Receptor Binding Inhibitor, ebioscience 14-9161-73).
# Cell culture and transfection. […]
# Immunofluorescence assays on cultured cells. Binding and quantitation of Fc-HRS (2-60) to cell-expressed NRP2 was achieved using immunofluorescence microscopy. […] The Hoechst stain was replaced with 1×PBS and subsequently read on an IN Cell Analyzer 2200. 20× images were acquired and analyzed using In Cell Analyzer 1000 Workstation software. […]
row,Molecule,inhibition of Fc-HRS (2-60) binding to cells expressing NRP2a-GFP
1,B5,binding inhibition; also recorded: direct competition
